The subject of one assay is human MYD88. Briefly: Phage display screening of TIR domain-derived peptide library against immobilized MyD88, NGS analysis after four rounds. The class given is binding. The following applies: for NGS count: phages remaining after fourth round. As to the method:
(§1) First, vector cloning was performed by synthesizing a DNA sequence for expressing each peptide belonging to the library constructed in Example 1. Vector cloning was performed using p3/p8 phagemids.
(§2) After the fourth round, the remaining phages were obtained by binding to the finally immobilized target proteins, and peptide sequences binding to the target and the relative distribution of each sequence were confirmed by performing NGS analysis on phagemids in the phages.

The subject of the next assay is human MAL. The experiment in a line: Phage display screening of TIR domain-derived peptide library against immobilized MAL, NGS analysis after four rounds. The class given is binding. The following applies: for NGS count: phages remaining after fourth round. As to the method:
as §1, §2

In the next assay the target is human MyD88 (human) (UniProt Q99836). Briefly: P8 phage display panning on plate-immobilised MyD88, after round 4, NGS.
The target in a further assay is human MAL (human) (UniProt P58753). The experiment in a line: P3 phage display panning on plate-immobilised MAL, after round 4, NGS.
Setting [1] is: P8_MAL: library displayed on P8 coat protein.
Setting [2] is: P8_MAL: relative distribution of the sequence in NGS.
Where [3] appears, read: P3_MyD88: library displayed on P3 coat protein.
Where [4] appears, read: P3_MyD88: relative distribution of the sequence in NGS.
Where [5] appears, read: P3_MAL: library displayed on P3 coat protein.
Setting [6] is: P3_MAL: relative distribution of the sequence in NGS.

Chain of UniProt P58753 (P58753 79-221 limits assumed): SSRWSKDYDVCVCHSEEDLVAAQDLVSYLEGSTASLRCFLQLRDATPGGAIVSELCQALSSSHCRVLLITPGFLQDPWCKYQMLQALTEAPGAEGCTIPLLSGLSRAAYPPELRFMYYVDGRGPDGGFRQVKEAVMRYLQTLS
Chain of UniProt Q99836 (Q99836 155-296 limits assumed): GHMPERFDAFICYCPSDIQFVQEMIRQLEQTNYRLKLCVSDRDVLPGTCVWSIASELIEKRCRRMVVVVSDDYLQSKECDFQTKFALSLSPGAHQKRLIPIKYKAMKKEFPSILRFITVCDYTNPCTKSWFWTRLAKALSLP

Regarding QLIQQWIELHLHQLHL, the results for the NGS count in the assay with human MYD88 (P8_MyD88: library displayed on P8 coat protein) and in the assay with human MAL (setting [1]) were 1605 and 9394, respectively. The Population was 0.62% in the assay with human MYD88 (P8_MyD88: relative distribution of the sequence in NGS) and 2.90% in the assay on human MAL (setting [2]).
As to LKVESWRQALEKAGKL, the NGS count came to 16847 in the assay on human MYD88 (setting [3]) and 5180 in the assay with human MAL (setting [5]). The values for the Population in the assay with human MYD88 (setting [4]) and in the assay on human MAL (setting [6]) were 4.91% and 2.32%, respectively.
For the molecule DTKLKKGESIAPELLR, the results for the NGS count with human MYD88 (setting [3]) and in the assay with human MAL (setting [1]) were 2465 and 5617, respectively. The Population was found to be 0.72% with human MYD88 (setting [4]) and 1.74% with human MAL (setting [2]).
On to DHHLDLPRGKAIKPEILG, for which the NGS count is 26722 in the assay on human MYD88 (setting [3]) and 2280 in the assay with human MAL (setting [5]). In addition, the results for the Population in the assay with human MYD88 (setting [4]) and in the assay on human MAL (setting [6]) were 7.78% and 0.86%, respectively.
LKWGDPYFWSKLRYAM: the results for the NGS count with human MYD88 (setting [3]) and with human MAL (setting [5]) were 8310 and 5128, respectively. For the same molecule, the Population is 2.42% in the assay on human MYD88 (setting [4]) and 1.93% in the assay with human MAL (setting [6]).
For SSFREGLWRLLELSKK, the results for the NGS count with human MYD88 (setting [3]) and in the assay with human MAL (setting [5]) were 79510 and 29955, respectively. The Population in the assay with human MYD88 (setting [4]) is on record as 23.15%; with human MAL (setting [6]), 11.26%.
As for YLKWGYPWFWDRLRFA, the NGS count in the assay on human MYD88 (setting [3]) came out at 7321; in the assay on human MAL (setting [5]) it was 1680; in the assay on human MAL (setting [1]), 517. In addition, the Population in the assay with human MYD88 (setting [4]) is listed as 2.13%; with human MAL (setting [6]), 0.63%.
As to LVAHEISKKMKIFATI, the NGS count in the assay with human MYD88 (setting [3]) came out at 17452; in the assay with human MAL (setting [5]) it was 1671. Besides, the Population is 5.08% in the assay with human MYD88 (setting [4]) and 0.63% in the assay on human MAL (setting [6]).
The like results for KNLFNELVSKNIRTFM were, in that order, 8543, 3259, 2.49% and 1.22%.
The like results for ESILNQLRRSSQSIAN were, in that order, 1976, 3680, 0.58% and 1.38%.
In the case of VQWDDPWFWDKLAYAM, in the assay with human MyD88 (human), the NGS count was determined as 4900 count and the Population came out at 1.89%.
The matching figures for DPQDLQWFYERLVSLI: 5730 count and 2.21%.
Turning to LQNQWKLALTKVANLV, in the assay with human MAL (human), the NGS count was determined as 2280 count and the Population was 0.86%.
In the assay with human MyD88 (human), WALDELLQILHARELF had an NGS count of 14400 count and a Population of 5.55%.
The matching figures for DPQDLDWFYERLVSLF: 54800 count and 21.1%.
For the molecule WALDELLKILYANETM, in the assay with human MyD88 (human), the NGS count turned out to be 10500 count and the Population is 4.05%.
Regarding VEPTQVRKQSGAVENA, in the assay with human MAL (human), the NGS count is 2280 count and the Population worked out at 0.86%.
In the case of DWVWDYLLPNLEGPAG, in the assay with human MyD88 (human), the NGS count came to 19400 count and the Population is 7.47%.
In the case of HQAFWNRLWAKLKPPT, in the assay with human MAL (human), the NGS count was found to be 1930 count and the Population stood at 0.73%.
In the assay with human MyD88 (human), DSLFWDRLLYSLHVTE had an NGS count of 7590 count and a Population of 2.92%.
Turning to DWFLSKLSQHILKREK, in the assay with human MAL (human), the NGS count was determined as 4580 count and the Population amounted to 1.72%.
In the assay with human MAL (human), RLLKWKEALHQFHSWV came in with an NGS count of 14900 count and a Population of 5.61%.
With DPQDLDWFYERLVSLL, in the assay with human MyD88 (human), the NGS count was found to be 13100 count and the Population turned out to be 5.06%.
The like results for YASYDDNDYYWVTHVLLRHL were, in that order, 5890 count and 2.66%.
As to SFFWNKLRYHLPAPQH, in the assay with human MAL (human), the NGS count is 2300 count and the Population amounted to 0.86%.
In the assay with human MAL (human), SLRKNLVSNLIEEFKR gave an NGS count of 3570 count and a Population of 1.34%.
The like results for PNLRTKVLNYLMRTKT were, in that order, 26900 count and 10.1%.
In the assay with human MAL (human), HHKGSYGEALAEHEKR gave an NGS count of 3060 count and a Population of 1.15%.
In the assay with human MyD88 (human), PQDLEWFYERLVSLIL gave an NGS count of 10600 count and a Population of 4.07%.
The matching figures for LGYHWIDWEYFVGIED: 25200 count and 9.72%.
The like results for YLLLSVFQTIFARRTE were, in that order, 7160 count and 2.76%.
In the assay with human MAL (human), RGFLSHLRHHLQAKDH had an NGS count of 15100 count and a Population of 5.66%.
In the assay with human MyD88 (human), SAAYDDFWDRLIRMIE had an NGS count of 5340 count and a Population of 2.06%.
KWFWDKLIYALSRNPH: in the assay with human MAL (human), the NGS count was found to be 2800 count and the Population is 1.05%.
The matching figures for FLNFRGLDVRNYFLGH: 2860 count and 1.07%.
With WDFASNMEQFWDRLYY, in the assay with human MyD88 (human), the NGS count is 7350 count and the Population is 2.83%.
In the assay with human MAL (human), KMQKWKDALYEAANLS showed an NGS count of 4430 count and a Population of 1.66%.

(Values after patent EP4613859A1, “TLR SIGNALING INHIBITORY PEPTIDE AND COMPOSITION INCLUDING SAME FOR PREVENTION OR TREATMENT OF INFLAMMATORY DISEASES” (Korea Institute of Science and Technology, priority 2022, dated 2025).)
